Assay results reported in publication PMC7821112 (The New Phytologist, 2020).

Tests used:
[1] = target: GST‐tagged Ghd7 (Grain number, plant height and heading‐date7) (rice (Oryza sativa)) (UniProt E5RQA1); assay: pull-down
[2] = target: T1, GST‐tagged Ghd7 (Grain number, plant height and heading‐date7) (rice (Oryza sativa), UniProt E5RQA1 1-257); assay: pull-down
T1 sequence (looked up): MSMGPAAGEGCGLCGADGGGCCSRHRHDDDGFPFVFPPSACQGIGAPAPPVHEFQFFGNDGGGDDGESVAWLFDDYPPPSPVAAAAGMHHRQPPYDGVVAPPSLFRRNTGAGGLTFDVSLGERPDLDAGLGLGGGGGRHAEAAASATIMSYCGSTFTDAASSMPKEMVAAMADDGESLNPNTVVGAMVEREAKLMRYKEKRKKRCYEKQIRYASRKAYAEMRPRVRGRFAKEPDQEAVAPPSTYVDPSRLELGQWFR

Work on “MBP‐tagged Hd1 (Heading date 1) (from UniProt Q9FDX8 1-395) (natural protein)” yielded a stoichiometry N [1] of 1.

B1: MBP‐tagged DTH8 (Days‐to‐heading on chromosome 8) (natural protein, rice (Oryza sativa), UniProt Q0J7P4 1-297, looked up)
chain: MKSRKSYGHLLSPVGSPPLDNESGEAAAAAAAGGGGCGSSAGYVVYGGGGGGDSPAKEQDRFLPIANVSRIMKRSLPANAKISKESKETVQECVSEFISFVTGEASDKCQREKRKTINGDDLLWAMTTLGFEAYVGPLKSYLNRYREAEGEKADVLGGAGGAAAARHGEGGCCGGGGGGADGVVIDGHYPLAGGLSHSHHGHQQQDGGGDVGLMMGGGDAGVGYNAGAGSTTTAFYAPAATAASGNKAYCGGDGSRVMEFEGIGGEEESGGGGGGGERGFAGHLHGVQWFRLKRNTN
In the case of B1, the “stoichiometry N” value [2] is reported as 1.
